Measurements as given in article PMC5740061 (Nature Communications, 2017).

B1: SDGF-TB1G1 (TB1G1 displayed on 293F cells) [designed binder] / Biotinylated His-Avi-TEAD1(194–411) [modified: biotin (BirA-500 kit); biotin (BirA-500 kit)] [not stated] (parent complex)
chain 1: PDEYIERAKECCKKGDIQCCLRYFEESGDPNVMLICLFCP
chain 2: RSIGTTKLRLVEFSAFLEQQRDPDSYNKHLFVHIGHANHSYSDPLLESVDIRQIYDKFPEKKGGLKELFGKGPQNAFFLVKFWADLNCNIQDDAGAFYGVTSQYESSENMTVTCSTKVCSFGKQVVEKVETEYARFENGRFVYRINRSPMCEYMINFIHKLKHLPEKYMMNSVLENFTILLVVTNRDTQETLLCMACVFEVSNSEHGAQHHIYRLVKD

Variants of: B1
Experiment: mammalian (293F) surface display of a site-saturation mutagenesis library (every non-Cys single substitution), FACS sorting on biotinylated TEAD1 YBD, two sorting rounds, Illumina sequencing with perfect-match mapping; 20 nM biotinylated TEAD, monovalent 2-step stain (TEAD alone 30 min at 4 °C, dilute, pellet, then 20 nM streptavidin-Alexa Fluor 647), flow sorting on a BD Aria

Variant	enrichment
chain 1 PDEYIEEAKECCKKGDIQCCLRYFEESGDPNVMLICLFCP [chain 1 R7E]	-0.163 log2 (fold change of variant abundance after two TEAD sorts vs input, normalised to TB1G1)
chain 1 PDEYIELAKECCKKGDIQCCLRYFEESGDPNVMLICLFCP [chain 1 R7L]	-0.388 log2 (fold change of variant abundance after two TEAD sorts vs input, normalised to TB1G1)
chain 1 PDELIERAKECCKKGDIQCCLRYFEESGDPNVMLICLFCP [chain 1 Y4L]	-1.81 log2 (fold change of variant abundance after two TEAD sorts vs input, normalised to TB1G1)
chain 1 PDEQIERAKECCKKGDIQCCLRYFEESGDPNVMLICLFCP [chain 1 Y4Q]	0.291 log2 (fold change of variant abundance after two TEAD sorts vs input, normalised to TB1G1)
chain 1 PDEDIERAKECCKKGDIQCCLRYFEESGDPNVMLICLFCP [chain 1 Y4D]	-1.79 log2 (fold change of variant abundance after two TEAD sorts vs input, normalised to TB1G1)
chain 1 PDEYINRAKECCKKGDIQCCLRYFEESGDPNVMLICLFCP [chain 1 E6N]	-0.816 log2 (fold change of variant abundance after two TEAD sorts vs input, normalised to TB1G1)
chain 1 PDEYIRRAKECCKKGDIQCCLRYFEESGDPNVMLICLFCP [chain 1 E6R]	-1.78 log2 (fold change of variant abundance after two TEAD sorts vs input, normalised to TB1G1)
chain 1 PDEYIKRAKECCKKGDIQCCLRYFEESGDPNVMLICLFCP [chain 1 E6K]	-1.13 log2 (fold change of variant abundance after two TEAD sorts vs input, normalised to TB1G1)
chain 1 PDEYIDRAKECCKKGDIQCCLRYFEESGDPNVMLICLFCP [chain 1 E6D]	-0.602 log2 (fold change of variant abundance after two TEAD sorts vs input, normalised to TB1G1)
chain 1 PDEYIERWKECCKKGDIQCCLRYFEESGDPNVMLICLFCP [chain 1 A8W]	-5.46 log2 (fold change of variant abundance after two TEAD sorts vs input, normalised to TB1G1)
chain 1 PDEYIERYKECCKKGDIQCCLRYFEESGDPNVMLICLFCP [chain 1 A8Y]	-3.35 log2 (fold change of variant abundance after two TEAD sorts vs input, normalised to TB1G1)
chain 1 PDEYIERFKECCKKGDIQCCLRYFEESGDPNVMLICLFCP [chain 1 A8F]	-4.33 log2 (fold change of variant abundance after two TEAD sorts vs input, normalised to TB1G1)
chain 1 PDWYIERAKECCKKGDIQCCLRYFEESGDPNVMLICLFCP [chain 1 E3W]	-1.4 log2 (fold change of variant abundance after two TEAD sorts vs input, normalised to TB1G1)
chain 1 PDNYIERAKECCKKGDIQCCLRYFEESGDPNVMLICLFCP [chain 1 E3N]	0.579 log2 (fold change of variant abundance after two TEAD sorts vs input, normalised to TB1G1)
chain 1 PDKYIERAKECCKKGDIQCCLRYFEESGDPNVMLICLFCP [chain 1 E3K]	-0.5 log2 (fold change of variant abundance after two TEAD sorts vs input, normalised to TB1G1)
chain 1 PDEYAERAKECCKKGDIQCCLRYFEESGDPNVMLICLFCP [chain 1 I5A]	-1.2 log2 (fold change of variant abundance after two TEAD sorts vs input, normalised to TB1G1)
chain 1 PDEYKERAKECCKKGDIQCCLRYFEESGDPNVMLICLFCP [chain 1 I5K]	-1.5 log2 (fold change of variant abundance after two TEAD sorts vs input, normalised to TB1G1)
chain 1 PDEYSERAKECCKKGDIQCCLRYFEESGDPNVMLICLFCP [chain 1 I5S]	-2.04 log2 (fold change of variant abundance after two TEAD sorts vs input, normalised to TB1G1)
chain 1 PTEYIERAKECCKKGDIQCCLRYFEESGDPNVMLICLFCP [chain 1 D2T]	-0.52 log2 (fold change of variant abundance after two TEAD sorts vs input, normalised to TB1G1)
chain 1 PFEYIERAKECCKKGDIQCCLRYFEESGDPNVMLICLFCP [chain 1 D2F]	-3.41 log2 (fold change of variant abundance after two TEAD sorts vs input, normalised to TB1G1)
chain 1 PHEYIERAKECCKKGDIQCCLRYFEESGDPNVMLICLFCP [chain 1 D2H]	-1.05 log2 (fold change of variant abundance after two TEAD sorts vs input, normalised to TB1G1)
chain 1 VDEYIERAKECCKKGDIQCCLRYFEESGDPNVMLICLFCP [chain 1 P1V]	-0.595 log2 (fold change of variant abundance after two TEAD sorts vs input, normalised to TB1G1)
chain 1 LDEYIERAKECCKKGDIQCCLRYFEESGDPNVMLICLFCP [chain 1 P1L]	-2.9 log2 (fold change of variant abundance after two TEAD sorts vs input, normalised to TB1G1)
chain 1 PDEYIERAHECCKKGDIQCCLRYFEESGDPNVMLICLFCP [chain 1 K9H]	-1.5 log2 (fold change of variant abundance after two TEAD sorts vs input, normalised to TB1G1)
chain 1 PDEYIERADECCKKGDIQCCLRYFEESGDPNVMLICLFCP [chain 1 K9D]	-0.576 log2 (fold change of variant abundance after two TEAD sorts vs input, normalised to TB1G1)
